Reference: patent publication US20220016254A1 (BEIJING QL BIOPHARMACEUTICAL, published 2022)

Assays:
human GLP-1 receptor = human GLP-1 receptor (human, UniProt P43220 24-463); assay: cell-based or functional assay
human beta-Klotho = biological target: T1, human beta-Klotho (human, UniProt Q86Z14 1-1044); assay: cell-based or functional assay
T1 sequence (looked up): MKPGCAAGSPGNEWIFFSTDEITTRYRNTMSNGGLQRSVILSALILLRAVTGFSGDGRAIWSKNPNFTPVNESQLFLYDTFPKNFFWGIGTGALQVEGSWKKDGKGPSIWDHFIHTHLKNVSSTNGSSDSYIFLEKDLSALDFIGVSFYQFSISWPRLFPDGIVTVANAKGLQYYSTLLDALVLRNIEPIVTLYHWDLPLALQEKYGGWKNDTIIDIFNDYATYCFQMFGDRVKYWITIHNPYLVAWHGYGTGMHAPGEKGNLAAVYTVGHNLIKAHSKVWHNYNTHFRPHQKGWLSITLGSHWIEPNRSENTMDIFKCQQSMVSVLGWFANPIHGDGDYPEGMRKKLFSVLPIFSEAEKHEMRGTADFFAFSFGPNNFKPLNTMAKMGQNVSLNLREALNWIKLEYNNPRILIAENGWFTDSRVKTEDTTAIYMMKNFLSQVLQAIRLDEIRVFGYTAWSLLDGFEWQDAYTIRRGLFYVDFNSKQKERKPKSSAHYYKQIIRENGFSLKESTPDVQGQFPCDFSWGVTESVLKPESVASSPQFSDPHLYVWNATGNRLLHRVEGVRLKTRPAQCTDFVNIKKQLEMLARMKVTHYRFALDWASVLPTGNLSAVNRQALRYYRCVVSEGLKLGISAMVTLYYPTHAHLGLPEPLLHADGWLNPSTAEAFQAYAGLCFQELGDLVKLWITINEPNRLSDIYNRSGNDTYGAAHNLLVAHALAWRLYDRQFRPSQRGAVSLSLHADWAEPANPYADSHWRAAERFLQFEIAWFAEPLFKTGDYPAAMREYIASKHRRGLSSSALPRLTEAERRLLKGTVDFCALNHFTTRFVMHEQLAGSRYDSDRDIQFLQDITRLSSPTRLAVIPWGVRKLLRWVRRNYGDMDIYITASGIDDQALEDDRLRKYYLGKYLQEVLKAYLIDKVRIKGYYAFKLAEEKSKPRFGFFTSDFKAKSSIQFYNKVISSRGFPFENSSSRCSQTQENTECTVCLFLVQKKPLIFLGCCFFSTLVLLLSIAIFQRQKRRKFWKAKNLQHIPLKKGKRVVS

Row | Binder | GLP-1 activity (EC50, pM); CRE luciferase reporter (human GLP-1 receptor) [pM] | FGF21 activity (EC50, nM); p-ERK levels (human beta-Klotho) [nM]
1 | Compound 50 (ligand, Moiety A (HOOC-(CH2)16-CO-gGlu-2XADO) on 51K and 233K of fusion polypeptide) HGEGTFTSDVSSYLEEQAAREFIAWLVRGGGGGGGSGGGGSGGGGSGGGGKHPIPDSSPLLQFGGQVRQRYLYTDDAQQTEAHLEIREDGTVGGAADQSPESLLQLRALRPGVIQILGVRTSRFLCQRPDGALYGSLHFDPEACSFRELLLEDGYNVYQSEAHGLPLHLPGQRSPHRDPAPRGPARFLPLPGLPPALPEPPGILAPQPPDVGSSDPLSLVGGSQGRSPSYESK | 15.4 | 8.7
2 | Compound 39 (ligand, Moiety A (HOOC-(CH2)16-CO-gGlu-2XADO) on 71K and 242K of fusion polypeptide) HGEGTFTSDVSSYLEEQAAREFIAWLVRGGGGGGGSGGGGSGGGGSGGGGSGGGGSGGGGSGGGGSGGGGKHPIPDSSPLLQFGGQVRQRYLYTDDAQQTEAHLEIREDGTVGGAADQSPESLLQLRALRPGVIQILGVRTSRFLCQRPDGALYGSLHFDPEACSFRELLLEDGYNVYQSEAHGLPLHLPGQRSPHRDPAPRGPARFLPLPGLPPALPEPPGILAPQPPDVGSSDPLSLVGKSQGRSPSYES | 12.6 | 4.2
3 | Compound 2 (ligand, Moiety A (HOOC-(CH2)16-CO-gGlu-2XADO) on 20K and 231K of fusion polypeptide) HGEGTFTSDVSSYLEEQAAKEFIAWLVRGGGGGGGSGGGGSGGGGSGGGGSHPIPDSSPLLQFGGQVRQRYLYTDDAQQTEAHLEIREDGTVGGAADQSPESLLQLRALRPGVIQILGVRTSRFLCQRPDGALYGSLHFDPEACSFRELLLEDGYNVYQSEAHGLPLHLPGQRSPHRDPAPRGPARFLPLPGLPPALPEPPGILAPQPPDVGSSDPLSLVGGSQGRSPSYKS | 46.6 | 5.5
4 | Compound 52 (ligand, Moiety B (HOOC-(CH2)20-CO-gGlu-2XADO-EDA-CO-CH2) on 51C and 225C of fusion polypeptide) HGEGTFTSDVSSYLEEQAAKEFIAWLVRGGGGGGGSGGGGSGGGGSGGGGCHPIPDSSPLLQFGGQVRQRYLYTDDAQQTEAHLEIREDGTVGGAADQSPESLLQLKALKPGVIQILGVKTSRFLCQRPDGALYGSLHFDPEACSFRELLLEDGYNVYQSEAHGLPLHLPGQKSPHRDPAPRGPARFLPLPGLPPALPEPPGILAPQPPDVGSSDPLSLVGGSQCRSPSYES | 30.2 | 2.4
5 | Compound 63 (ligand, Moiety B (HOOC-(CH2)20-CO-gGlu-2XADO-EDA-CO-CH2) on 51C and 222C of fusion polypeptide) HGEGTFTSDVSSYLEEQAAKEFIAWLVKGGGGGGGSGGGGSGGGGSGGGGCHPIPDSSPLLQFGGQVRQRYLYTDDAQQTEAHLEIREDGTVGGAADQSPESLLQLKALKPGVIQILGVKTSRFLCQRPDGALYGSLHFDPEACSFRELLLEDGYNVYQSEAHGLPLHLPGQKSPHRDPAPRGPARFLPLPGLPPALPEPPGILAPQPPDVGSSDPLSLVGCSQGRSPSYES | 49.1 | 1.2
6 | Compound 5 (ligand, Moiety A (HOOC-(CH2)16-CO-gGlu-2XADO) on 51K and 222K of fusion polypeptide) HGEGTFTSDVSSYLEEQAAREFIAWLVRGGGGGGGSGGGGSGGGGSGGGGKHPIPDSSPLLQFGGQVRQRYLYTDDAQQTEAHLEIREDGTVGGAADQSPESLLQLRALRPGVIQILGVRTSRFLCQRPDGALYGSLHFDPEACSFRELLLEDGYNVYQSEAHGLPLHLPGQRSPHRDPAPRGPARFLPLPGLPPALPEPPGILAPQPPDVGSSDPLSLVGKSQGRSPSYAS | 23.1 | 12.9
7 | Compound 4 (ligand, Moiety A (HOOC-(CH2)16-CO-gGlu-2XADO) on 51K and 231K of fusion polypeptide) HGEGTFTSDVSSYLEEQAAREFIAWLVRGGGGGGGSGGGGSGGGGSGGGGKHPIPDSSPLLQFGGQVRQRYLYTDDAQQTEAHLEIREDGTVGGAADQSPESLLQLRALRPGVIQILGVRTSRFLCQRPDGALYGSLHFDPEACSFRELLLEDGYNVYQSEAHGLPLHLPGQRSPHRDPAPRGPARFLPLPGLPPALPEPPGILAPQPPDVGSSDPLSLVGGSQGRSPSYKS | 25.1 | 7.7
8 | Compound 54 (ligand, Moiety B (HOOC-(CH2)20-CO-gGlu-2XADO-EDA-CO-CH2) on 51C and 231C of fusion polypeptide) HGEGTFTSDVSSYLEEQAAKEFIAWLVRGGGGGGGSGGGGSGGGGSGGGGCHPIPDSSPLLQFGGQVRQRYLYTDDAQQTEAHLEIREDGTVGGAADQSPESLLQLKALKPGVIQILGVKTSRFLCQRPDGALYGSLHFDPEACSFRELLLEDGYNVYQSEAHGLPLHLPGQKSPHRDPAPRGPARFLPLPGLPPALPEPPGILAPQPPDVGSSDPLSLVGGSQGRSPSYCS | 19 | 3.4
9 | Compound 51 (ligand, Moiety B (HOOC-(CH2)20-CO-gGlu-2XADO-EDA-CO-CH2) on 51C and 222C of fusion polypeptide) HGEGTFTSDVSSYLEEQAAKEFIAWLVRGGGGGGGSGGGGSGGGGSGGGGCHPIPDSSPLLQFGGQVRQRYLYTDDAQQTEAHLEIREDGTVGGAADQSPESLLQLKALKPGVIQILGVKTSRFLCQRPDGALYGSLHFDPEACSFRELLLEDGYNVYQSEAHGLPLHLPGQKSPHRDPAPRGPARFLPLPGLPPALPEPPGILAPQPPDVGSSDPLSLVGCSQGRSPSYES | 30.7 | 4.3
10 | Compound 69 (ligand, Moiety B (HOOC-(CH2)20-CO-gGlu-2XADO-EDA-CO-CH2) on 49C and 220C of fusion polypeptide) EGTFTSDVSSYLEEQAAKEFIAWLVKGGGGGGGSGGGGSGGGGSGGGGCHPIPDSSPLLQFGGQVRQRYLYTDDAQQTEAHLEIREDGTVGGAADQSPESLLQLKALKPGVIQILGVKTSRFLCQRPDGALYGSLHFDPEACSFRELLLEDGYNVYQSEAHGLPLHLPGQKSPHRDPAPRGPARFLPLPGLPPALPEPPGILAPQPPDVGSSDPLSLVGCSQGRSPSYES | > 1000 | 0.53
11 | Compound 71 (ligand, Moiety B (HOOC-(CH2)20-CO-gGlu-2XADO-EDA-CO-CH2) on 52C and 282C of fusion polypeptide) HGEGTFTSDVSSYLEEQAAKEFIAWLVKGGGGAQPGAQPGAQPGAQPGAQPCQAPGAQPGAQPGAQPGAQPGAQPGAQPGAQPGAQPGAQPGAQPGAQPGAQPGAQPGAQPHPIPDSSPLLQFGGQVRQRYLYTDDAQQTEAHLEIREDGTVGGAADQSPESLLQLKALKPGVIQILGVKTSRFLCQRPDGALYGSLHFDPEACSFRELLLEDGYNVYQSEAHGLPLHLPGQKSPHRDPAPRGPARFLPLPGLPPALPEPPGILAPQPPDVGSSDPLSLVGCSQGRSPSYES | 16.5 | 2.7
12 | Compound 72 (ligand, Moiety B (HOOC-(CH2)20-CO-gGlu-2XADO-EDA-CO-CH2) on 62C and 282C of fusion polypeptide) HGEGTFTSDVSSYLEEQAAKEFIAWLVKGGGGAQPGAQPGAQPGAQPGAQPGAQPGAQPGQCPGAQPGAQPGAQPGAQPGAQPGAQPGAQPGAQPGAQPGAQPGAQPGAQPHPIPDSSPLLQFGGQVRQRYLYTDDAQQTEAHLEIREDGTVGGAADQSPESLLQLKALKPGVIQILGVKTSRFLCQRPDGALYGSLHFDPEACSFRELLLEDGYNVYQSEAHGLPLHLPGQKSPHRDPAPRGPARFLPLPGLPPALPEPPGILAPQPPDVGSSDPLSLVGCSQGRSPSYES | 16.5 | 2.4
13 | Compound 73 (ligand, Moiety B (HOOC-(CH2)20-CO-gGlu-2XADO-EDA-CO-CH2) on 42C and 282C of fusion polypeptide) HGEGTFTSDVSSYLEEQAAKEFIAWLVKGGGGAQPGAQPGQCPGAQPGAQPGAQPGAQPGAQPGAQPGAQPGAQPGAQPGAQPGAQPGAQPGAQPGAQPGAQPGAQPGAQPHPIPDSSPLLQFGGQVRQRYLYTDDAQQTEAHLEIREDGTVGGAADQSPESLLQLKALKPGVIQILGVKTSRFLCQRPDGALYGSLHFDPEACSFRELLLEDGYNVYQSEAHGLPLHLPGQKSPHRDPAPRGPARFLPLPGLPPALPEPPGILAPQPPDVGSSDPLSLVGCSQGRSPSYES | 16.6 | 3.6
14 | Compound 66 (ligand, Moiety B (HOOC-(CH2)20-CO-gGlu-2XADO-EDA-CO-CH2) on 51C and 225C of fusion polypeptide) HGEGTFTSDVSSYLEEQAAKEFIAWLVKGGGGSAPGSPAGSPTGSAPGSPCHPIPDSSPLLQFGGQVRQRYLYTDDAQQTEAHLEIREDGTVGGAADQSPESLLQLKALKPGVIQILGVKTSRFLCQRPDGALYGSLHFDPEACSFRELLLEDGYNVYQSEAHGLPLHLPGQKSPHRDPAPRGPARFLPLPGLPPALPEPPGILAPQPPDVGSSDPLSLVGGSQCRSPSYES | 41.3 | 1
15 | Compound 48 (ligand, Moiety A (HOOC-(CH2)16-CO-gGlu-2XADO) on 51K and 222K of fusion polypeptide) HGEGTFTSDVSSYLEEQAAREFIAWLVRGGGGAQPGAQPGAQPGAQPGAQKHPIPDSSPLLQFGGQVRQRYLYTDDAQQTEAHLEIREDGTVGGAADQSPESLLQLRALRPGVIQILGVRTSRFLCQRPDGALYGSLHFDPEACSFRELLLEDGYNVYQSEAHGLPLHLPGQRSPHRDPAPRGPARFLPLPGLPPALPEPPGILAPQPPDVGSSDPLSLVGKSQGRSPSYES | 14.4 | 20.4
16 | Compound 70 (ligand, Moiety B (HOOC-(CH2)20-CO-gGlu-2XADO-EDA-CO-CH2) on 51C and 219C of fusion polypeptide) HGEGTFTSDVSSYLEEQAAKEFIAWLVKGGGGGGGSGGGGSGGGGSGGGGCHPIPDSSPLLQFGGQVRQRYLYTDDAQQTEAHLEIREDGTVGGAADQSPESLLQLKALKPGVIQILGVKTSRFLCQRPDGALYGSLHFDPEACSFRELLLEDGYNVYQSEAHGLPLHLPGQKSPHRDPAPRGPARFLPLPGLPPALPEPPGILAPQPPDVGSSDPLSC | 24.8 | > 100
